According to article PMC3944813:

Molecular target: NadRh from M. tuberculosis (NadR homolog) (M. tuberculosis)
Assay: SEC

NadRh from M. tuberculosis (NadR homolog) (natural protein)
stoichiometry N: 2
